According to PMC9710096:

Experiments:
Assay in all cases: SEC
[1] = target: SARS-CoV-2 Beta Spike protein (B.1.351), tagless (SARS-CoV-2 | bacteriophage T4 (from the name T4 fibritin)) (UniProt P0DTC2)
[2] = target: SARS-CoV-2 D614G Spike protein, tagless (SARS-CoV-2 | bacteriophage T4 (from the name T4 fibritin)) (UniProt P0DTC2)
[3] = target: SARS-CoV-2 Delta Spike protein (B.1.617.2), tagless (SARS-CoV-2 | bacteriophage T4 (from the name T4 fibritin)) (UniProt P0DTC2)
[4] = target: SARS-CoV-2 Gamma Spike protein (P.1), tagless (SARS-CoV-2 | bacteriophage T4 (from the name T4 fibritin)) (UniProt P0DTC2)

SARS-CoV-2 Beta Spike protein (B.1.351), tagless (from UniProt P0DTC2 1-1208) (natural protein)
stoichiometry N [1]: 3

SARS-CoV-2 D614G Spike protein, tagless (from UniProt P0DTC2 1-1208) (natural protein)
stoichiometry N [2]: 3

SARS-CoV-2 Delta Spike protein (B.1.617.2), tagless (from UniProt P0DTC2 1-1208) (natural protein)
stoichiometry N [3]: 3

SARS-CoV-2 Gamma Spike protein (P.1), tagless (from UniProt P0DTC2 1-1208) (natural protein)
stoichiometry N [4]: 3
